{"source": "patent US20250230242A1", "about": "“PHARMACEUTICAL COMPOSITION OF ANTI-TIM-3 ANTIBODY AND HYPOMETHYLATING AGENT” (NANJING SHUNXIN PHARMACEUTICALS CO., LTD. OF CHIATAI …, priority 2022, published 2025)", "molecules": {"B1": {"name": "humanized anti-TIM-3 antibody h50B5 (antibody, human IgG4 S228P, kappa, V domains shown)", "VH": "QVQLVQSGAEVKKPGASVKVSCKASGYSFTGYTINWVRQAPGQGLEWMGLFNPYNGGTTYAQKFQGRVTMTVDKSTSTVYMELSSLRSEDTAVYYCARRYYGYDAMDYWGQGTLVTVSS", "VL": "DIQMTQSPSSLSASVGDRVTITCKSSQSVLYSSNQKNHLAWYQQKPGKAPKLLIYWASTRESGVPSRFSGSGSGTDFTLTISSLQPEDFATYYCHQYLSSYTFGQGTKLEIKR", "notes": "Humanized from mouse mAb 50B5 by CDR grafting; human IgG4 heavy chain constant region and human light chain constant region"}, "B2": {"name": "anti-TIM-3 antibody TSR022 (antibody, human IgG4 S228P, kappa, V domains shown)", "VH": "EVQLLESGGGLVQPGGSLRLSCAAASGFTFSSYDMSWVRQAPGKGLDWVSTISGGGTYTYYQDSVKGRFTISRDNSKNTLYLQMNSLRAEDTAVYYCASMDYWGQGTTVTVSS", "VL": "DIQMTQSPSSLSASVGDRVTITCRASQSIRRYLNWYHQKPGKAPKLLIYGASTLQSGVPSRFSGSGSGTDFTLTISSLQPEDFAVYYCQQSHSAPLTFGGGTKVEIKR", "notes": "Benchmark antibody, prepared in the same way as h50B5"}}, "key": {"Daudi cells [1]": {"system": "Daudi cells", "assay": "ADCC against Daudi cells", "type": "cell-based", "conditions": "1 or 10 μg/mL, effector cells PBMC, FIG. 3", "procedure": "(§1) After the reaction was completed, the mixture was centrifuged, and the supernatant was collected and measured for fluorescence values at 490 nm as excitation wavelength and 515 nm as emission wavelength. The cells were lysed directly with 0.1% Triton X-100 and centrifuged, and then the supernatant was collected to determine the total fluorescence value. The lysis rate (%) was calculated based on the fluorescence value."}, "Daudi cells [2]": {"system": "Daudi cells", "assay": "CDC against Daudi cells", "type": "cell-based", "conditions": "10 or 100 μg/mL, 10% human serum, FIG. 4", "procedure": "(§2) CHO-S-HuTIM-3 cells and Daudi cells (Shanghai Cell Bank of Chinese Academy of Sciences) were inoculated into a 96-well plate. […] Finally, CCK-8 reagent (Dojindo Laboratories) was added and reacted for 4 h. The OD value was measured at a wavelength of 450 nm using a microplate reader, and the lysis rate (%) was calculated."}, "[3]": {"target": "T1, CHO-S-HuTIM-3 cells highly expressing human TIM-3 (Homo sapiens, UniProt Q8TDQ0)", "T1 construct": "expressed in transfected cells; host or cells: CHO-S", "assay": "Binding to cells highly expressing human TIM-3 (cell ELISA)", "procedure": "The human TIM-3 gene was transfected into CHO-S cells, and the cells were incubated in an incubator at 37° C. with 5% CO2 using a Dynamis AGT medium (containing 4 mM glutamic acid and 3 μg/mL Puromycin) to give CHO-S-HuTIM-3 cells. […] After the reaction was stopped with H2SO4, the OD value was measured at a wavelength of 450 nm using a full-function microplate reader Synergy H4. The binding EC50 was calculated based on the OD value."}, "CHO-S-HuTIM-3 cells [4]": {"system": "CHO-S-HuTIM-3 cells", "assay": "ADCC against CHO-S-HuTIM-3 cells", "type": "cell-based", "conditions": "10 or 100 μg/mL, effector cells PBMC, FIG. 3", "procedure": "as §1"}, "CHO-S-HuTIM-3 cells [5]": {"system": "CHO-S-HuTIM-3 cells", "assay": "CDC against CHO-S-HuTIM-3 cells", "type": "cell-based", "conditions": "10 or 100 μg/mL, 10% human serum, FIG. 4", "procedure": "as §2"}, "[6]": {"target": "T2, human TIM-3 on CHO-S-HuTIM-3 cells (human, UniProt Q8TDQ0 22-301)", "T2 construct": "whole, on cells; Human TIM-3 gene transfected into CHO-S cells; also called CHO-S-HuTIM-3 cells highly expressing human TIM-3", "assay": "cell ELISA on CHO-S-HuTIM-3 cells, anti-human kappa-HRP"}, "[7]": {"target": "T3, human TIM-3 recombinant protein (R&D) (human, UniProt Q8TDQ0 22-200)", "T3 construct": "Bought recombinant protein; also called human TIM-3 protein", "assay": "ELISA, human TIM-3 coated, h50B5 titrated, anti-human kappa-HRP"}, "[8]": {"target": "T4, cynomolgus monkey TIM-3 recombinant protein (Acro) (cynomolgus monkey, UniProt A0A2K5U3G7 22-193)", "T4 construct": "Bought recombinant protein; His tag implied only by the Anti-His HRP detection; also called cynomolgus monkey TIM-3 protein", "T4 sequence": "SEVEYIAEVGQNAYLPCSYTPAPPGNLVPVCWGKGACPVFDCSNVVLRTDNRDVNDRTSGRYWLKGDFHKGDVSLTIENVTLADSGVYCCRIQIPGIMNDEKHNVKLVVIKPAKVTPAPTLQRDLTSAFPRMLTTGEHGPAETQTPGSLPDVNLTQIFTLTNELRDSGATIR", "assay": "ELISA, h50B5 coated at 2 µg/mL, cynomolgus TIM-3 titrated, Anti-His HRP"}}, "data": [{"molecule": "Rituxan®: positive control for ADCC and CDC with Daudi cells as target cells", "values": [{"measurement": "ADCC against Daudi cells", "setting": "Daudi cells [1]", "result": "exhibited significant ADCC"}, {"measurement": "CDC against Daudi cells", "setting": "Daudi cells [2]", "result": "exhibited significant CDC"}]}, {"molecule": "TSR022: anti-TIM-3 antibody used as benchmark, heavy chain SEQ ID NO: 22, light chain SEQ ID NO: 23 [reference compound]", "values": [{"measurement": "EC50 of binding to CHO-S-HuTIM-3 cells", "setting": "[3]; FIG. 1", "result": "6.8155 ± 0.1662", "unit": "µg/mL"}, {"measurement": "maximum binding Emax (OD450), CHO-S-HuTIM-3 cells", "setting": "[3]; FIG. 1, OD450", "result": "0.26±0.05"}, {"measurement": "ADCC against CHO-S-HuTIM-3 cells", "setting": "CHO-S-HuTIM-3 cells [4]", "result": "did not show significant ADCC"}, {"measurement": "CDC against CHO-S-HuTIM-3 cells", "setting": "CHO-S-HuTIM-3 cells [5]", "result": "did not show significant CDC"}]}, {"molecule": "B1", "values": [{"measurement": "EC50", "setting": "[6]", "result": 1.46, "unit": "µg/mL"}, {"measurement": "EC50", "setting": "[7]", "result": 0.291, "unit": "µg/mL"}, {"measurement": "EC50", "setting": "[8]", "result": 1.64, "unit": "µg/mL"}]}, {"molecule": "B2", "values": [{"measurement": "EC50", "setting": "[6]", "result": 6.82, "unit": "µg/mL"}]}]}
